Legend:
[1] = molecular target: B. subtilis S72N TRAP (trp RNA-binding attenuation protein, S72N mutant) (B. subtilis) (UniProt P19466); test: crystal structure; hanging drop vapor diffusion at 18°C; protein in 10 mM triethanolamine pH 8.0, 100 mM NaCl, 15 mM L-tryptophan, 33.5 mg/ml; six subunits in the asymmetric unit, 12-mer generated by the crystallographic 2-fold axis of P2(1)2(1)2
[2] = molecular target: B. subtilis S72N TRAP (trp RNA-binding attenuation protein, S72N mutant) (B. subtilis) (UniProt P19466); test: native MS; nanoflow electrospray of purified S72N TRAP picked by SEC (elution volume less than 14.5 ml); methods in Text S1

stoichiometry N [1]: 12
stoichiometry N [2]: 12
Substance: B. subtilis S72N TRAP (trp RNA-binding attenuation protein, S72N mutant) (from UniProt P19466 1-71) (natural protein)

Source: PMC3435397
